Data: patent publication US20130236458A1 (AbbVie / Abbott, published 2013)
Positions count from the first letter of the chain named.

T1: Recombinant Human IL-17 (human, UniProt Q16552 20-155, limits assumed)
T1 sequence (looked up): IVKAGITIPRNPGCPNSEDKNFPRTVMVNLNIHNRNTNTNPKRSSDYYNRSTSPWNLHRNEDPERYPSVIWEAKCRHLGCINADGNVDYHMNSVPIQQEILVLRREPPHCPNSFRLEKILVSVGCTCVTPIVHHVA

B1: DVD2154 (bispecific antibody)
VH: EVTLRESGPGLVKPTQTLTLTCTLYGFSLSTSDMGVDWIRQPPGKGLEWLAHIWWDDVKRYNPALKSRLTISKDTSKNQVVLKLTSVDPVDTATYYCARTVSSGYIYYAMDYWGQGTLVTVSSASTKGPEVQLVQSGAEVKKPGSSVKVSCKASGGSFGGYGIGWVRQAPGQGLEWMGGITPFFGFADYAQKFQGRVTITADESTTTAYMELSGLTSDDTAVYYCARDPNEFWNGYYSTHDFDSWGQGTTVTVSS
VL: DIQMTQSPSSLSASVGDRVTISCRASQDIRNYLNWYQQKPGKAPKLLIFYTSKLHSGVPSRFSGSGSGTDYTLTISSLQPEDIATYYCQQGLTPPLTFGGGTKVEIKRTVAAPEIVLTQSPDFQSVTPKEKVTITCRASQDIGSELHWYQQKPDQPPKLLIKYASHSTSGVPSRFSGSGSGTDFTLTINGLEAEDAGTYYCHQTDSLPYTFGPGTKVDIKR
B2: DVD2156 (bispecific antibody)
VH: B1 VH
VL: DIQMTQSPSSLSASVGDRVTISCRASQDIRNYLNWYQQKPGKAPKLLIFYTSKLHSGVPSRFSGSGSGTDYTLTISSLQPEDIATYYCQQGLTPPLTFGGGTKVEIKRTVAAPSVFIFPPEIVLTQSPDFQSVTPKEKVTITCRASQDIGSELHWYQQKPDQPPKLLIKYASHSTSGVPSRFSGSGSGTDFTLTINGLEAEDAGTYYCHQTDSLPYTFGPGTKVDIKR
B3: DVD2160 (bispecific antibody)
VH: EVTLRESGPGLVKPTQTLTLTCTLYGFSLSTSDMGVDWIRQPPGKGLEWLAHIWWDDVKRYNPALKSRLTISKDTSKNQVVLKLTSVDPVDTATYYCARTVSSGYIYYAMDYWGQGTLVTVSSASTKGPEVQLVQSGAEVKKPGESVKISCKASGGSFRSYGISWVRQAPGQGLEWMGGITHFFGITDYAQKFQGRVTITADESTTTAYMELSGLTSDDTAVYYCAREPNDFWNGYYDTHDFDSWGQGTTVTVSS
VL: B1 VL with D141N, P156S, T168I, G197A, T204S, S206T, Y209H, P213Q
B4: DVD2162 (bispecific antibody)
VH: B3 VH
VL: B2 VL with D148N, P163S, T175I, G204A, T211S, S213T, Y216H, P220Q
B5: DVD2163 (bispecific antibody)
VH: EVQLVQSGAEVKKPGESVKISCKASGGSFRSYGISWVRQAPGQGLEWMGGITHFFGITDYAQKFQGRVTITADESTTTAYMELSGLTSDDTAVYYCAREPNDFWNGYYDTHDFDSWGQGTTVTVSSASTKGPEVTLRESGPGLVKPTQTLTLTCTLYGFSLSTSDMGVDWIRQPPGKGLEWLAHIWWDDVKRYNPALKSRLTISKDTSKNQVVLKLTSVDPVDTATYYCARTVSSGYIYYAMDYWGQGTLVTVSS
VL: EIVLTQSPDFQSVTPKEKVTITCRASQNIGSELHWYQQKPDQSPKLLIKYASHSISGVPSRFSGSGSGTDFTLTINGLEAEDAATYYCHQSDTLPHTFGQGTKVDIKRTVAAPSVFIFPPDIQMTQSPSSLSASVGDRVTISCRASQDIRNYLNWYQQKPGKAPKLLIFYTSKLHSGVPSRFSGSGSGTDYTLTISSLQPEDIATYYCQQGLTPPLTFGGGTKVEIKR
B6: DVD2169 (bispecific antibody)
VH: EVQLVQSGAEVKKPGSSVKVSCKASGYTFTDYEIHWVRQAPGQGLEWMGVNDPESGGTFYNQKFDGRVTLTADESTSTAYMELSSLRSEDTAVYYCTRYSKWDSFDGMDYWGQGTTVTVSSASTKGPEVQLVQSGAEVKKPGASVKVSCKASGYTFTTYGVSWVRQAPGQGLEWMGEIYPGNYNTYYNEKFRGRVTMTTDTSTSTAYMELRSLRSDDTAVYYCARWRTSYFSDYGYFDYWGQGTTVTVSS
VL: DIQMTQSPSSLSASVGDRVTITCRASSGIISYIDWFQQKPGKAPKRLIYATFDLASGVPSRFSGSGSGTDYTLTISSLQPEDFATYYCRQVGSYPETFGQGTKLEIKRTVAAPSVFIFPPDVVMTQSPLSLPVTLGQPASISCRSSQSLVHSHGNTYLHWYQQRPGQSPRLLIYTVSNRFSGVPDRFSGSGSGTDFTLKISRVEAEDVGVYYCSQSTHVPYTFGGGTKVEIKR
B7: DVD2170 (bispecific antibody)
VH: EVQLVQSGAEVKKPGASVKVSCKASGYTFTTYGVSWVRQAPGQGLEWMGEIYPGNYNTYYNEKFRGRVTMTTDTSTSTAYMELRSLRSDDTAVYYCARWRTSYFSDYGYFDYWGQGTTVTVSSASTKGPSVFPLAPEVQLVQSGAEVKKPGSSVKVSCKASGYTFTDYEIHWVRQAPGQGLEWMGVNDPESGGTFYNQKFDGRVTLTADESTSTAYMELSSLRSEDTAVYYCTRYSKWDSFDGMDYWGQGTTVTVSS
VL: DVVMTQSPLSLPVTLGQPASISCRSSQSLVHSHGNTYLHWYQQRPGQSPRLLIYTVSNRFSGVPDRFSGSGSGTDFTLKISRVEAEDVGVYYCSQSTHVPYTFGGGTKVEIKRTVAAPDIQMTQSPSSLSASVGDRVTITCRASSGIISYIDWFQQKPGKAPKRLIYATFDLASGVPSRFSGSGSGTDYTLTISSLQPEDFATYYCRQVGSYPETFGQGTKLEIKR
B8: DVD2176 (bispecific antibody)
VH: EVQLVQSGAEVKKPGASVKVSCKASGYTFTTYGVSWVRQAPGQGLEWMGEIYPGNYNTYYNEKFRGRVTMTTDTSTSTAYMELRSLRSDDTAVYYCARWRTSYFSDYGYFDYWGQGTTVTVSSASTKGPSVFPLAPEVQLVQSGAEVKKPGSSVKVSCKASGGSFGGYGIGWVRQAPGQGLEWMGGITPFFGFADYAQKFQGRVTITADESTTTAYMELSGLTSDDTAVYYCARDPNEFWNGYYSTHDFDSWGQGTTVTVSS
VL: DVVMTQSPLSLPVTLGQPASISCRSSQSLVHSHGNTYLHWYQQRPGQSPRLLIYTVSNRFSGVPDRFSGSGSGTDFTLKISRVEAEDVGVYYCSQSTHVPYTFGGGTKVEIKRTVAAPEIVLTQSPDFQSVTPKEKVTITCRASQDIGSELHWYQQKPDQPPKLLIKYASHSTSGVPSRFSGSGSGTDFTLTINGLEAEDAGTYYCHQTDSLPYTFGPGTKVDIKR
B9: DVD2178 (bispecific antibody)
VH: EVQLVQSGAEVKKPGASVKVSCKASGYTFTTYGVSWVRQAPGQGLEWMGEIYPGNYNTYYNEKFRGRVTMTTDTSTSTAYMELRSLRSDDTAVYYCARWRTSYFSDYGYFDYWGQGTTVTVSSASTKGPEVQLVQSGAEVKKPGESVKISCKASGGSFRSYGISWVRQAPGQGLEWMGGITHFFGITDYAQKFQGRVTITADESTTTAYMELSGLTSDDTAVYYCAREPNDFWNGYYDTHDFDSWGQGTTVTVSS
VL: B8 VL with D146N, P161S, T173I, G202A, T209S, S211T, Y214H, P218Q

Columns and labels:
Recombinant Human IL-13 = Recombinant Human IL-13 (human, UniProt P35225 35-146, limits assumed); experiment: cell-based or functional assay
Sequence of Recombinant Human IL-13 (P35225 35-146 limits assumed): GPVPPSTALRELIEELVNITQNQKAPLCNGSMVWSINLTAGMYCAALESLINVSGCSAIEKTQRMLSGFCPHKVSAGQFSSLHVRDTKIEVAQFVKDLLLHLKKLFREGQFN

Recombinant Human IL-17 = molecular target: T1, Recombinant Human IL-17; experiment: cell-based or functional assay

| Binder | N-Terminal VD IL13 Neutralization Assay IC50 (Recombinant Human IL-13) [nM] | C-Terminal VD IL17 Neutralization Assay IC50 (Recombinant Human IL-17) [nM] | C-Terminal VD IL13 Neutralization Assay IC50 (Recombinant Human IL-13) [nM] | N-Terminal VD IL17 Neutralization Assay IC50 (Recombinant Human IL-17) [pM] |
| --- | --- | --- | --- | --- |
| B1 | 0.43 | 0.351 |  |  |
| B2 | 0.129 | 0.0155 |  |  |
| B3 | 0.178 | 0.703 |  |  |
| B4 | 0.126 | 0.0213 |  |  |
| B5 |  |  | 0.195 | 15.1 |
| B6 |  |  | 0.309 | 2.1 |
| B7 | 0.106 | 0.0053 |  |  |
| B8 | 0.106 | 0.116 |  |  |
| B9 | 0.088 | 0.691 |  |  |
